The assay deals with T1, αβγENaC (Rattus norvegicus, UniProt P37089+P37090+P37091).
T1 construct: expressed in transfected cells; host or cells: Xenopus laevis oocytes (cRNA injection)
T1 sequence (P37089 1-698): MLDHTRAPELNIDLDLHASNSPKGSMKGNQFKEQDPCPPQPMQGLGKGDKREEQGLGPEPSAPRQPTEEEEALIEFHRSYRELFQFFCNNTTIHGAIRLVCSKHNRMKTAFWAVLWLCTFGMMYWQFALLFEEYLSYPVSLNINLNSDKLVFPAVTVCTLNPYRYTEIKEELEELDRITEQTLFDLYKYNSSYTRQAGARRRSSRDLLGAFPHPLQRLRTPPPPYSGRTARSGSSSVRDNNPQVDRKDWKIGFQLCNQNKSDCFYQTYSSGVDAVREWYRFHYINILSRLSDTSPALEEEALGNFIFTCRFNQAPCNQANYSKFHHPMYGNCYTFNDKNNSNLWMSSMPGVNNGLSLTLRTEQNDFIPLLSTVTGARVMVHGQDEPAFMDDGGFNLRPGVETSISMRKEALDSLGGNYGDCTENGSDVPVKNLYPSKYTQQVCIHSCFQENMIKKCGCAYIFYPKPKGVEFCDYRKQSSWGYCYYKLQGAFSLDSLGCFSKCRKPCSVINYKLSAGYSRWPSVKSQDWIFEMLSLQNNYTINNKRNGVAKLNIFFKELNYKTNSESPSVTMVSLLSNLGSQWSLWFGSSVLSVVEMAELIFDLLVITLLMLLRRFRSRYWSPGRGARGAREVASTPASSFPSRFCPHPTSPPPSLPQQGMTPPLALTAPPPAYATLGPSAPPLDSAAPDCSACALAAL
T1 sequence (P37090 1-638): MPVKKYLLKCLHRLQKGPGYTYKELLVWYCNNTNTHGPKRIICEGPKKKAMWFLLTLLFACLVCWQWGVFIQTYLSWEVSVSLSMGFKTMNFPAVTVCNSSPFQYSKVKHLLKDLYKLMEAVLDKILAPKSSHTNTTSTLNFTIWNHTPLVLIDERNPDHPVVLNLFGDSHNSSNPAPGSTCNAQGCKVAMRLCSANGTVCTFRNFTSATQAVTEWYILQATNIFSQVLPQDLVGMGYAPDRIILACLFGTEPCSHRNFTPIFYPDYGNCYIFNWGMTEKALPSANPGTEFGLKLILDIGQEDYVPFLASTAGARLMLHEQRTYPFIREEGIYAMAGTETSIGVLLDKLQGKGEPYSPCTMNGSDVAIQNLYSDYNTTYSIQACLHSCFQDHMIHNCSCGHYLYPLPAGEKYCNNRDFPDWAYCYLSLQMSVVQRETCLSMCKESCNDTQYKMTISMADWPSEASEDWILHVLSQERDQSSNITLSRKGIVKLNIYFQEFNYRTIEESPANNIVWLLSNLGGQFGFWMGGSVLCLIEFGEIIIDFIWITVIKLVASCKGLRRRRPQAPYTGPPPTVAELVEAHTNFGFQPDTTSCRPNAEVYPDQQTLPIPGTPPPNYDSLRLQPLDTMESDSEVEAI
T1 sequence (P37091 1-650): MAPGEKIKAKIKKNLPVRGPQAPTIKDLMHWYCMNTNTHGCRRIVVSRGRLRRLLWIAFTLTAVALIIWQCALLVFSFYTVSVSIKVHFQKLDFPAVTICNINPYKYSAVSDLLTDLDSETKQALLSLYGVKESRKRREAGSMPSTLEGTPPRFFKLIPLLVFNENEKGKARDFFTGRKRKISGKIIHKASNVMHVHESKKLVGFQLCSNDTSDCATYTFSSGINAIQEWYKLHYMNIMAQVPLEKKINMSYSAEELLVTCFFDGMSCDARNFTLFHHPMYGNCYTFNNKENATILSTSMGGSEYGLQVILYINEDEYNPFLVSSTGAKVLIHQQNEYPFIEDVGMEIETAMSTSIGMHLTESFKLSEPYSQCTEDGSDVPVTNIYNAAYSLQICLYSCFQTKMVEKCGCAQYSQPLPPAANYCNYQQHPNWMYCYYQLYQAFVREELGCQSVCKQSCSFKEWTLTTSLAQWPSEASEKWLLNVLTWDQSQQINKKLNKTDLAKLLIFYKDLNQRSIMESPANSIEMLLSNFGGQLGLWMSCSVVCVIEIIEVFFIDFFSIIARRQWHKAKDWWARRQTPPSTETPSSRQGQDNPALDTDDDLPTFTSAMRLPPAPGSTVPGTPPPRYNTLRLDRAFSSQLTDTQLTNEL
The experiment in a line: Amiloride-sensitive whole cell current in Xenopus laevis oocytes expressing ENaC (two electrode voltage clamp). The format is cell-based. How it is done:
Oocyte studies. Xenopus laevis oocytes were harvested and injected as described (Donaldson, et al., J. Biol. Chem. 277:8338 (2002)). Defolliculated healthy stage V-VI oocytes were injected with 0.3 ng of cRNA of each ENaC subunit. Injected oocytes were kept in modified Barth's saline (in mM: 88 NaCl, 1 KCl, 2.4 NaHCO3, 0.3 Ca(NO3)2, 0.41 CaCl2, 0.82 MgSO4, and 15 HEPES, adjusted to pH 7.35 with Tris). Oocytes were studied 24 hr after injection using the two electrode voltage clamp technique as previously described (Donaldson, et al., J. Biol. Chem. 277:8338 (2002)). Oocytes were clamped at a holding potential of […]. The change in amiloride-sensitive whole cell current as an indicator of ENaC activity was determined by subtracting the corresponding current value measured in the presence of 10 μM amiloride from that measured before the application of amiloride.
In general terms: Two-electrode voltage clamp is typically applied to oocytes expressing channels or transporters.

As for trypsin [reference compound], where the note is “oocytes”, the “ENaC activity on trypsin exposure” value is given as “increased ENaC activity”.

B1: SPLUNC1: human SPLUNC1, 256 amino acid secreted PLUNC protein (SEQ ID NO:1); rSPLUNC1 = V5/6His-tagged protein purified from HEK293 media (protein, listed as Homo sapiens)
chain: MFQTGGLIVFYGLLAQTMAQFGGLPVPLDQTLPLNVNPALPLSPTGLAGSLTNALSNGLLSGGLLGILENLPLLDILKPGGGTSGGLLGGLLGKVTSVIPGLNNIIDIKVTDPQLLELGLVQSPDGHRLYVTIPLGIKLQVNTPLVGASLLRLAVKLDITAEILAVRDKQERIHLVLGDCTHSPGSLQISLLDGLGPLPIQGLLDSLTGILNKVLPELVQGNVCPLVNEVLRGLDITLVHDIVNMLIHGLQFVIKV
modifications: V5/6His tag
notes: rSPLUNC1 = V5/6His-tagged protein purified from HEK293 media
Consider B1, for which the “ability of CAP1 and CAP2 to activate ENaC” value (ENaC ± SPLUNC1 co-expressed with prostasin (CAP1) and CAP2) was “significantly reduced”. For the same molecule, the “inhibition of ENaC by full-length and truncated SPLUNC1” value (oocyte current inhibition assay, pH 7.4, all p<0.0001) is on record as “Significant inhibition”. In addition, the “trypsin stimulation of ENaC activity” value (trypsin-exposed oocytes ± SPLUNC1) is reported as “attenuated”.
